From publication doi:10.1101/2025.11.04.686606

Target: PcoAA14A_dCTR, disordered C-terminal region alone of PcoAA14A (Pycnoporus coccineus)
Assay: SEC-MALLS

stoichiometry N: 2
Substance: PcoAA14A_dCTR, disordered C-terminal region alone of PcoAA14A (domain or fragment)
